# Test results taken from patent publication US12384850 (SYSTIMMUNE, dated 2025).
# B1: SI-35E21 (bispecific antibody, not shown: small tags and cut ends)
# heavy (part 1 of 7): DIQMTQSPSTLSASVGDRVTITCQSSQSVYSNWFSWYQQKPGKAPKLLIYSASTLASGVPSRFSGSGSGTEFTLTISSLQPDDFATYYCAGGYNTVIDTFAFGGGTKVEIK
# heavy (part 2 of 7): EVQLLESGGGLVQPGGSLRLSCAASGIDFSRRYYMCWVRQAPGKGLEWIACIYTGSRDTPHYASSAKGRFTISRDNSKNTLYLQMNSLRAEDTAVYYCAREGSLWGQGTLVTVSS
# heavy (part 3 of 7): not shown
# heavy (part 4 of 7): EVQLVESGGGLVQPGGSLRLSCTASGFSLSSYAMSWVRQAPGRGLEWIGIIYASGSTYYASSAKGRFTISKDNTKNTVDLQMNSLRAEDTAVYYCARIYDGMDLWGQGTLVTVSS
# heavy (part 5 of 7): DIQMTQSPSSLSASVGDRVTINCQASQNIYSYLSWYQQKPGKVPKRLIYLASTLASGVPSRFSGSGSGTDYTLTISSLQPEDVATYYCQSNYNGNYGFGGGTKVEIK
# heavy (part 6 of 7): EVQLVESGGGLVQPGGSLRLSCAASGFTISTNAMSWVRQAPGKGLEWIGVITGRDITYYASWAKGRFTISRDNSKNTLYLQMNSLRAEDTAVYYCARDGGSSAITSNNIWGQGTLVTVSS
# heavy (part 7 of 7): DVVMTQSPSTLSASVGDRVTINCQASESISSWLAWYQQKPGKAPKLLIYEASKLASGVPSRFSGSGSGTEFTLTISSLQPDDFATYYCQGYFYFISRTYVNSFGGGTKVEIK
# light: AYDMTQSPSSVSASVGDRVTIKCQASEDIYSFLAWYQQKPGKAPKLLIHSASSLASGVPSRFSGSGSGTDFTLTISSLQPEDFATYYCQQGYGKNNVDNAFGGGTKVEIKRTVAAPSVFIFPPSDEQLKSGTASVVCLLNNFYPREAKVQWKVDNALQSGNSQESVTEQDSKDSTYSLSSTLTLSKADYEKHKVYACEVTHQGLSSPVTKSFNRGEC
# notes: Tetra-specific; the listing has only VHv3/VLv2
# B2: SI-35E25 (bispecific antibody, not shown: small tags and cut ends)
# heavy (part 1 of 7): ALVMTQSPSTLSASVGDRVTINCQASEDIDTYLAWYQQKPGKAPKLLIFYASDLASGVPSRFSGSGSGTEFTLTISSLQPDDFATYYCQGGYYTSSADTRGAFGGGTKVEIK
# heavy (part 2 of 7): QSLVESGGGLVQPGGSLRLSCAASGFSFSSNYWICWVRQAPGKGLEWIACIYVGSSGDTYYASSAKGRFTISRDNSKNTLYLQMNSLRAEDTAVYYCARDSSSYYMFNLWGQGTLVTVSS
# heavy (part 3 of 7): not shown
# heavy (part 4 of 7): EVQLVESGGGLVQPGGSLRLSCAASGFSLNNYWMSWVRQAPGKGLEWIGTISSGAYTWFATWATGRFTISRDNSKNTLYLQMNSLRAEDTAVYYCARYSSTTDWTYFNIWGQGTLVTVSS
# heavy (part 5 of 7): DIQMTQSPSTLSASVGDRVTITCQASQSINNYLAWYQQKPGKAPKLLIYRASTLESGVPSRFSGSGSGTEFTLTISSLQPDDFATYYCQSYNGVGRTAFGGGTKVEIK
# heavy (part 6 of 7): B1 heavy (part 6 of 7)
# heavy (part 7 of 7): B1 heavy (part 7 of 7)
# light: B1 light
# notes: as for B1
# B3: SI-35E26 (bispecific antibody, not shown: small tags and cut ends)
# heavy (part 1 of 7): DVVMTQSPSSVSASVGDRVTITCQASQNIRTYLSWYQQKPGKAPKLLIYAAANLASGVPSRFSGSGSGTDFTLTISDLEPGDAATYYCQSTYLGTDYVGGAFGGGTKVEIK
# heavy (part 2 of 7): RSLVESGGGLVQPGGSLRLSCTASGFTISSYHMQWVRQAPGKGLEYIGTISSGGNVYYASSARGRFTISRPSSKNTVDLQMNSLRAEDTAVYYCARDSGYSDPMWGQGTLVTVSS
# heavy (part 3 of 7): not shown
# heavy (part 4 of 7): B2 heavy (part 4 of 7)
# heavy (part 5 of 7): B2 heavy (part 5 of 7)
# heavy (part 6 of 7): B1 heavy (part 6 of 7)
# heavy (part 7 of 7): B1 heavy (part 7 of 7)
# light: B1 light
# notes: as for B1
# B4: SI-35E19 (bispecific antibody, not shown: small tags and cut ends)
# heavy (part 1 of 7): B2 heavy (part 1 of 7)
# heavy (part 2 of 7): B2 heavy (part 2 of 7)
# heavy (part 3 of 7): not shown
# heavy (part 4 of 7): EVQLLESGGGLVQPGGSLRLSCAASGFTISRYHMTWVRQAPGKGLEWIGHIYVNNDDTDYASSAKGRFTISRDNSKNTLYLQMNSLRAEDTATYFCARLDVGGGGAYIGDIWGQGTLVTVSS
# heavy (part 5 of 7): DIQMTQSPSSLSASVGDRVTITCQSSQSVYNNNDLAWYQQKPGKVPKLLIYYASTLASGVPSRFSGSGSGTDFTLTISSLQPEDVATYYCAGGYDTDGLDTFAFGGGTKVEIK
# heavy (part 6 of 7): B1 heavy (part 6 of 7)
# heavy (part 7 of 7): B1 heavy (part 7 of 7)
# light: B1 light
# notes: as for B1
# B5: SI-35E22 (bispecific antibody, not shown: small tags and cut ends)
# heavy (part 1 of 7): B2 heavy (part 1 of 7)
# heavy (part 2 of 7): B2 heavy (part 2 of 7)
# heavy (part 3 of 7): not shown
# heavy (part 4 of 7): B1 heavy (part 4 of 7)
# heavy (part 5 of 7): B1 heavy (part 5 of 7)
# heavy (part 6 of 7): B1 heavy (part 6 of 7)
# heavy (part 7 of 7): B1 heavy (part 7 of 7)
# light: B1 light
# notes: as for B1
# B6: SI-35E20 (bispecific antibody, not shown: small tags and cut ends)
# heavy (part 1 of 7): B3 heavy (part 1 of 7)
# heavy (part 2 of 7): B3 heavy (part 2 of 7)
# heavy (part 3 of 7): not shown
# heavy (part 4 of 7): B4 heavy (part 4 of 7)
# heavy (part 5 of 7): B4 heavy (part 5 of 7)
# heavy (part 6 of 7): B1 heavy (part 6 of 7)
# heavy (part 7 of 7): B1 heavy (part 7 of 7)
# light: B1 light
# notes: as for B1
# B7: SI-35E23 (bispecific antibody, not shown: small tags and cut ends)
# heavy (part 1 of 7): B3 heavy (part 1 of 7)
# heavy (part 2 of 7): B3 heavy (part 2 of 7)
# heavy (part 3 of 7): not shown
# heavy (part 4 of 7): B1 heavy (part 4 of 7)
# heavy (part 5 of 7): B1 heavy (part 5 of 7)
# heavy (part 6 of 7): B1 heavy (part 6 of 7)
# heavy (part 7 of 7): B1 heavy (part 7 of 7)
# light: B1 light
# notes: as for B1
# B8: SI-35E24 (bispecific antibody, not shown: small tags and cut ends)
# heavy (part 1 of 7): B1 heavy (part 1 of 7)
# heavy (part 2 of 7): B1 heavy (part 2 of 7)
# heavy (part 3 of 7): not shown
# heavy (part 4 of 7): B2 heavy (part 4 of 7)
# heavy (part 5 of 7): B2 heavy (part 5 of 7)
# heavy (part 6 of 7): B1 heavy (part 6 of 7)
# heavy (part 7 of 7): B1 heavy (part 7 of 7)
# light: B1 light
# notes: Tetra-specific; the listing has only VHv3/VLv2; also called SI-3524
# Target: T1, human PD-L1 (human, UniProt Q9NZQ7 19-290)
# T1 construct: whole, on cells; also called PDL1 expressing CHO cells; human PD-L1 transfected CHO cells
# Experiment: FACS on human PD-L1 transfected CHO cells
# Method: (§1) Example 3: FACS Analysis of Tetra-Specific GNC Antibody Binding to Human PDL1 Transfected CHO Cells The tetra-specific GNC antibodies listed in TABLEs 3 and 4 were tested for binding to Chinese hamster ovary cells (CHO) cells stably expressing full length human ROR1. Antibodies were prepared at 2× final concentration and titrated 1:5 across 3 wells of a 96 well plate in 50 ul of PBS/2% FBS and then 5,000 ROR1-CHO cells in 50 ul PBS/2% FBS were added. This mixture was incubated for 30 minutes on ice, washed once with 200 ul PBS/2% FBS, and then the secondary antibody PE Goat anti-Human IgG Fc at 1:1000 dilution of stock was added, and this mixture was incubated for 30 minutes on ice. Cells were washed 2×200 ul PBS/2% FBS, resuspended in 50 ul PBS/2% FBS and analyzed on a BD LSRFORTESSA and the binding profile is shown in FIG. 6.
# T1 sequence (Q9NZQ7 19-290): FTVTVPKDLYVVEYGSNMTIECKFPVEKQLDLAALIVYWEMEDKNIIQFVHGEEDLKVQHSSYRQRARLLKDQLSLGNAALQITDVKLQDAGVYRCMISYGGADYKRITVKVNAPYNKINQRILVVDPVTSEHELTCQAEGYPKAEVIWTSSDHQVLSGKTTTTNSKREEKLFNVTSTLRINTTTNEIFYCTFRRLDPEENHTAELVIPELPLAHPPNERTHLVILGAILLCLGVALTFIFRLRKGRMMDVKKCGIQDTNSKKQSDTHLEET
row,binding result,Binder
1,binds,B1
2,binds,B2
3,binds,B3
4,binds,B4
5,binds,B5
6,binds,B6
7,binds,B7
8,binds,B8

# Target: T2, human 41BB (human, UniProt Q07011 24-255)
# T2 construct: whole, on cells; also called 41BB expressing CHO cells; human 41BB transfected CHO cells
# Experiment: FACS on human 41BB transfected CHO cells
# Method: as §1, with “2:” for “3:”, “41BB” for “PDL1”, “a […]” for “full length”, “5. All of the tetra-specific GNC antibodies except for the control SI-27E12 contain a 41BB binding domain, 460C3, 420H5, or 466F6 and bound to 41BB expressing CHO cells with varying intensity.” for “6.”
# T2 sequence (Q07011 24-255): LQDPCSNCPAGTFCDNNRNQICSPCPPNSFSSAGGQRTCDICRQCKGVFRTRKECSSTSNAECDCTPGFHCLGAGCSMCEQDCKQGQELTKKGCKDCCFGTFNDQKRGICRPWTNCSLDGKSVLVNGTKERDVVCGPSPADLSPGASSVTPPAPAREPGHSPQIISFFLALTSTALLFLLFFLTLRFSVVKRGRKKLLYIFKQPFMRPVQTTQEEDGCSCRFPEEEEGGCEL
row,binding result,Binder
1,binds,B1
2,binds,B2
3,binds,B3
4,binds,B4
5,binds,B5
6,binds,B6
7,binds,B7
8,binds,B8

# Target: T3, full-length human ROR1 (human, UniProt Q01973 30-937)
# T3 construct: whole, on cells; also called human ROR1 transfected CHO cells; ROR1-CHO cells
# Experiment: FACS on CHO cells stably expressing full-length human ROR1
# Method: as §1, with “Example 1:” for “Example 3:”, “Tetra-Specific Specific” for “Tetra-Specific GNC”, “Human ROR1” for “Human PDL1”, “expressing a […]” for “expressing full length”, “FIG. 4.” for “FIG. 6.”
# T3 sequence (Q01973 30-937): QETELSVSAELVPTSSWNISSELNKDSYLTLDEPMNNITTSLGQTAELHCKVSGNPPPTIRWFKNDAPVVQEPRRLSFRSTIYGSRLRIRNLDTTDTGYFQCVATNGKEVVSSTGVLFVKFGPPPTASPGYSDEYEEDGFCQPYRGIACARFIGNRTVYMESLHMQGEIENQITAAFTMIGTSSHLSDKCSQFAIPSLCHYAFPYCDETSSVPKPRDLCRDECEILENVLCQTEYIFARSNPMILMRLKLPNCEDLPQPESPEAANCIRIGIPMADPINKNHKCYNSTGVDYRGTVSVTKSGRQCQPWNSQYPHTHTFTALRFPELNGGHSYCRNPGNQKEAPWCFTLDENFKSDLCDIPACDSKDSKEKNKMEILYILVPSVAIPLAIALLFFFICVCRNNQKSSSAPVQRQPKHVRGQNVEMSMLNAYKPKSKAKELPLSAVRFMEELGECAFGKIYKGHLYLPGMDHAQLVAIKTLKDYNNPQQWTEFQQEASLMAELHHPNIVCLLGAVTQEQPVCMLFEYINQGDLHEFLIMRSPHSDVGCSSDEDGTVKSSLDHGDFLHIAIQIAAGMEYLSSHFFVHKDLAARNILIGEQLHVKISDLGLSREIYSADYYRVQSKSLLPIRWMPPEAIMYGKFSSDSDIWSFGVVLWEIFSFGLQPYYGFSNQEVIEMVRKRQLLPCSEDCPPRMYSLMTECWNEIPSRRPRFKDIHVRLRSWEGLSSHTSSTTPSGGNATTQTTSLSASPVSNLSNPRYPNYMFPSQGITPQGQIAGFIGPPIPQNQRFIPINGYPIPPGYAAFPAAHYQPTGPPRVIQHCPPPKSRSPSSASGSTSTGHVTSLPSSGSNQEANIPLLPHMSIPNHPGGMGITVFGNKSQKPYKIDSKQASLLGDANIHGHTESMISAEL
row,binding result,Binder
1,binds,B1
2,no binding,B2
3,no binding,B3
4,binds,B4
5,binds,B5
6,binds,B6
7,binds,B7
8,no binding,B8
